Data on one molecule can be found in PMC6136799, “The Npa1p complex chaperones the assembly of the earliest eukaryotic large ribosomal subunit precursor” (PLoS Genetics, 2018).

Experiment [1] addresses T1, GST-Npa1p (S. cerevisiae, UniProt P34241 1-1764).
T1 construct: Npa1p, S. cerevisiae; NPA1 ORF inserted into XhoI-digested pGEX-6P1 (plasmid pRC59); source: E. coli Rosetta λDE3, purified (Glutathione Sepharose 4 FF)
In words: pull-down; 2 μg GST-tagged protein on glutathione magnetic beads, 2 μg His-Dbp6p in 200 μl IP buffer (50 mM Tris-HCl pH 8, 150 mM potassium chloride, 5 mM magnesium chloride, 0.2% Nonidet P-40), 1 h at 16°C; Western with anti-His; also after RNase A treatment. The note with it: both partners purified.

The target of experiment [2] is T2, GST-Npa2p (S. cerevisiae, UniProt P47108 1-1174).
T2 construct: Npa2p, S. cerevisiae; NPA2 ORF inserted into XhoI-digested pGEX-6P1 (plasmid pRC58); source: E. coli Rosetta λDE3, purified (Glutathione Sepharose 4 FF)
T2 sequence (looked up): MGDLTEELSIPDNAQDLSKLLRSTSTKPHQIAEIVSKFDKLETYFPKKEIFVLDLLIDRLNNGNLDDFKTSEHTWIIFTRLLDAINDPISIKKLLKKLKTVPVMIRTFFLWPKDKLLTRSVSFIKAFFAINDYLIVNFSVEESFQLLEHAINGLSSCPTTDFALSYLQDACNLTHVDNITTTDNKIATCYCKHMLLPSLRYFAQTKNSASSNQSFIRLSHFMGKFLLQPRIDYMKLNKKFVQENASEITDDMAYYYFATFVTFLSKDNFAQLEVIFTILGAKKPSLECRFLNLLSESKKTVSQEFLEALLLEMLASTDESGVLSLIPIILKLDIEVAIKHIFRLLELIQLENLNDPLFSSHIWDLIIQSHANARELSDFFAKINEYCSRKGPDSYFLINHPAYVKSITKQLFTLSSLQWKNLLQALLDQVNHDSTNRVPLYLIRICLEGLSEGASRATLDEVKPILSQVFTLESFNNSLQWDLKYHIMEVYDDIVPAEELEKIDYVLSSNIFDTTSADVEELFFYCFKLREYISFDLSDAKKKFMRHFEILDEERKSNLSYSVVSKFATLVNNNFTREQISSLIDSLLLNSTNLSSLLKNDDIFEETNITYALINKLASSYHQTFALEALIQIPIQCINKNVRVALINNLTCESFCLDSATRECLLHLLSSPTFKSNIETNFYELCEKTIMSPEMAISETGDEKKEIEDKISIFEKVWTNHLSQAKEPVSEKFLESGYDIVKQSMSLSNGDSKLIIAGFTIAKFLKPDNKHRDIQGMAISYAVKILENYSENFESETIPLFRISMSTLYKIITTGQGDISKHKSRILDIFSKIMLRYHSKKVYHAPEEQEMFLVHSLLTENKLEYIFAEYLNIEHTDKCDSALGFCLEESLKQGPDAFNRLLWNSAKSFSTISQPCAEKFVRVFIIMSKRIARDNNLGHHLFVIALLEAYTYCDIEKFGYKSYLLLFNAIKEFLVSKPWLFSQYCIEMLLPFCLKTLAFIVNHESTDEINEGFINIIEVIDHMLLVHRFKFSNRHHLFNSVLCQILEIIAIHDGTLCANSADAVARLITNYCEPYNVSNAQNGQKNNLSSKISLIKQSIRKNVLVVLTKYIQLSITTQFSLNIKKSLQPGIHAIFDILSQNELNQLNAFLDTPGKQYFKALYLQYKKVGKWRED
Described as above. As to conditions: both partners purified.

T1 sequence (P34241 whole entry): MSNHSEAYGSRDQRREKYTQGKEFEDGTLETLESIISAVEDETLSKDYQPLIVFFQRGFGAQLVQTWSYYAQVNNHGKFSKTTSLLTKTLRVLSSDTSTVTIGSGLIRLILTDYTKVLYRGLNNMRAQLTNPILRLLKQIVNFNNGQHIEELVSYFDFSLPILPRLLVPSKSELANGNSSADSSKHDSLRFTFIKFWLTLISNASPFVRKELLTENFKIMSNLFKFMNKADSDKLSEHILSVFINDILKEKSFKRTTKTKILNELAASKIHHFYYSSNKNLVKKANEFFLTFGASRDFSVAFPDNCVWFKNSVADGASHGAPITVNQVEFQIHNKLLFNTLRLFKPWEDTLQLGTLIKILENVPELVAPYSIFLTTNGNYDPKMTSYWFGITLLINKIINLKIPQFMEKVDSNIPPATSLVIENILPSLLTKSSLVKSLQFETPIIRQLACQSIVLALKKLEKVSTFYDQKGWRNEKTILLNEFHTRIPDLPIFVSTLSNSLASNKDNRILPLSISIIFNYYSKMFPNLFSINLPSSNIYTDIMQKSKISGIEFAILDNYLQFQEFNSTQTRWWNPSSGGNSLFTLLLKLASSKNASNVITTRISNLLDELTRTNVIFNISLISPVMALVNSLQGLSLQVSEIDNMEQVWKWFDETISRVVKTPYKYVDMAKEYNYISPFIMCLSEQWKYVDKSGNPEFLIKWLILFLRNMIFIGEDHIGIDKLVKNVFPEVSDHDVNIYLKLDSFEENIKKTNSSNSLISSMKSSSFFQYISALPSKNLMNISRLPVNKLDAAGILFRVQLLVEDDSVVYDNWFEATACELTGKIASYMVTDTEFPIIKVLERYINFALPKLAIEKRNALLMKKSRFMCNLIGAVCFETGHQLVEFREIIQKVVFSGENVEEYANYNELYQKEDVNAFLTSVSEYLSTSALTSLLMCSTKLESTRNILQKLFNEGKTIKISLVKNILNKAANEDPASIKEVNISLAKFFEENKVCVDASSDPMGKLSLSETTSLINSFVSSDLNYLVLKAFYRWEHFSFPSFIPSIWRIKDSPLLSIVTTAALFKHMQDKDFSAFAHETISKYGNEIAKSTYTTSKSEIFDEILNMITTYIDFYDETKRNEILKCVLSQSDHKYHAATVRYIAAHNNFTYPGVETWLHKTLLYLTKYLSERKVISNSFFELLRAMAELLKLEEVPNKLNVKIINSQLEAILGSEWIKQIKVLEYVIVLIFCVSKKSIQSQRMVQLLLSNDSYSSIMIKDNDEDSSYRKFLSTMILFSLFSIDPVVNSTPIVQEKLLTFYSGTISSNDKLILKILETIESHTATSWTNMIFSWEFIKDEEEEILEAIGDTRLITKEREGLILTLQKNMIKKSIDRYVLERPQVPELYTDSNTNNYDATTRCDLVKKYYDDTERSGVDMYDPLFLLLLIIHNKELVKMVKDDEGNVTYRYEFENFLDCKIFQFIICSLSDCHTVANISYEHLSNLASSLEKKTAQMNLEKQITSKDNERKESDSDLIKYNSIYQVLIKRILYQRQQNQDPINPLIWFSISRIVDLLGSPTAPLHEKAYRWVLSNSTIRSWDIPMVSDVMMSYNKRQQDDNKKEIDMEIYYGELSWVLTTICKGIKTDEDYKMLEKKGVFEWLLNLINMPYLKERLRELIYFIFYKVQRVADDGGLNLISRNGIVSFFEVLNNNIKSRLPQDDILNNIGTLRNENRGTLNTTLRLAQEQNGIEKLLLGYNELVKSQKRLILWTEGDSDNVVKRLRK

B1: His-Dbp6p (natural protein, S. cerevisiae, UniProt P53734 1-629, looked up)
chain: MFASRFDPSQLTAPAASAPEGIVGTTPPAIVPLKRQATESDNEEYGSHQDSDESSNSSSEEDEDRMQVDYGASEEDSSEVEEEESKPSTHSTVLSRFKQTVSLQERLGASDIAESKEDEGIEDEAASTHQLKQIPQPEFVKNPMNLNTNSLQFKSTGWLNTEKIYYDNSLIKPFSDYANELEAKLLQNICKNFSTNTFPIQSIILDSILPVLNFTLNVSKRNFTRRIGDILVNAATGSGKTLAYSIPIVQTLFKRQINRLRCIIIVPTKLLINQVYTTLTKLTQGTSLIVSIAKLENSLKDEHKKLSNLEPDILITTPGRLVDHLNMKSINLKNLKFLIIDEADRLLNQSFQGWCPKLMSHLKTDKLDTLPGNVIKMIFSATLTTNTEKLNGLNLYKPKLFLKQTDKLYQLPNKLNEFNINIPTAKSVYKPLILLYSICQFMAHSPIAAKILIFVKSNESSIRLSKLLQLICESRSQSSVLKNLQNLAVSINSVNSNNSKAENKKIVANFSHHSESAGITILITTDIMSRGIDINDITQVINYDPPMSSQQYVHRVGRTARANELGSAYNLLVGRGERTFFDDLNKDLDRDGKSVQPLELDFTLLESDSELYTSSLESLKNYHNNTAQA
notes: Dbp6p, S. cerevisiae; DBP6 ORF cloned into a modified pET-15b (plasmid pET-DBP6); also called His-tagged Dbp6p; source: E. coli Rosetta λDE3, purified (HisTrap FF, Superdex 200)
For B1, the binding result in experiment [1] and in experiment [2] was “binds” each time.
